B1: wild-type KHNYN-GFP [human] / ZAP-L (zinc finger antiviral protein, long isoform) [modified: C-terminal S-farnesylation; C-terminal S-farnesylation] [human (endogenous in HeLa)] (parent)
chain 1: MPTWGARPASPDRFAVSAEAENKVREQQPHVERIFSVGVSVLPKDCPDNPHIWLQLEGPKENASRAKEYLKGLCSPELQDEIHYPPKLHCIFLGAQGFFLDCLAWSTSAHLVPRAPGSLMISGLTEAFVMAQSRVEELAERLSWDFTPGPSSGASQCTGVLRDFSALLQSPGDAHREALLQLPLAVQEELLSLVQEASSGQGPGALASWEGRSSALLGAQCQGVRAPPSDGRESLDTGSMGPGDCRGARGDTYAVEKEGGKQGGPREMDWGWKELPGEEAWEREVALRPQSVGGGARESAPLKGKALGKEEIALGGGGFCVHREPPGAHGSCHRAAQSRGASLLQRLHNGNASPPRVPSPPPAPEPPWHCGDRGDCGDRGDVGDRGDKQQGMARGRGPQWKRGARGGNLVTGTQRFKEALQDPFTLCLANVPGQPDLRHIVIDGSNVAMVHGLQHYFSSRGIAIAVQYFWDRGHRDITVFVPQWRFSKDAKVRESHFLQKLYSLSLLSLTPSRVMDGKRISSYDDRFMVKLAEETDGIIVSNDQFRDLAEESEKWMAIIRERLLPFTFVGNLFMVPDDPLGRNGPTLDEFLKKPARTQGSSKAQHPSRGFAEHGKQQQGREEEKGSGGIRKTRETERLRRQLLEVFWGQDHKVDFILQREPYCRDINQLSEALLSLNF
chain 2: MADPEVCCFITKILCAHGGRMALDALLQEIALSEPQLCEVLQVAGPDRFVVLETGGEAGITRSVVATTRARVCRRKYCQRPCDNLHLCKLNLLGRCNYSQSERNLCKYSHEVLSEENFKVLKNHELSGLNKEELAVLLLQSDPFFMPEICKSYKGEGRQQICNQQPPCSRLHICDHFTRGNCRFPNCLRSHNLMDRKVLAIMREHGLNPDVVQNIQDICNSKHMQKNPPGPRAPSSHRRNMAYRARSKSRDRFFQGSQEFLASASASAERSCTPSPDQISHRASLEDAPVDDLTRKFTYLGSQDRARPPSGSSKATDLGGTSQAGTSQRFLENGSQEDLLHGNPGSTYLASNSTSAPNWKSLTSWTNDQGARRKTVFSPTLPAARSSLGSLQTPEAVTTRKGTGLLSSDYRIINGKSGTQDIQPGPLFNNNADGVATDITSTRSLNYKSTSSGHREISSPRIQDAGPASRDVQATGRIADDADPRVALVNDSLSDVTSTTSSRVDDHDSEEICLDHLCKGCPLNGSCSKVHFHLPYRWQMLIGKTWTDFEHMETIEKGYCNPGIHLCSVGSYTINFRVMSCDSFPIRRLSTPSSVTKPANSVFTTKWIWYWKNESGTWIQYGEEKDKRKNSNVDSSYLESLYQSCPRGVVPFQAGSRNYELSFQGMIQTNIASKTQKDVIRRPTFVPQWYVQQMKRGPDHQPAKTSSVSLTATFRPQEDFCFLSSKKYKLSEIHHLHPEYVRVSEHFKASMKNFKIEKIKKIENSELLDKFTWKKSQMKEEGKLLFYATSRAYVESICSNNFDSFLHETHENKYGKGIYFAKDAIYSHKNCPYDAKNVVMFVAQVLVGKFTEGNITYTSPPPQFDSCVDTRSNPSVFVIFQKDQVYPQYVIEYTEDKACVIS

Variants of: B1
Assay: co-immunoprecipitation (GFP IP, immunoblot for endogenous ZAP, quantified)
Conditions: with ZAP-L (zinc finger antiviral protein, long isoform) [modified: C-terminal S-farnesylation, HeLa cell lysates, N = 3, parent: 1, read off a plot
For chain 1 L676Q F678E, the ratio to parent was 0.38.

Source: paper PMC9888277
